From patent US20180250358A1, “GHRH AGONISTS FOR THE TREATMENT OF ISCHEMIC DISORDERS” (published 2018)
Each block holds one binder with its values, some of them ahead of it. Non-standard residues stand in square brackets, D forms with d. No end group written: not given here. *: point of attachment. Phe(F5) = N[C@@H](Cc1c(F)c(F)c(F)c(F)c1F)C(=O)O; Desaminotyrosyl = O=C(CCc1ccc(O)cc1)*; NMeY = CN[C@@H](Cc1ccc(O)cc1)C(=O)O; Agmatine = N=C(N)NCCCCN*; NMeA = CN[C@@H](C)C(=O)O; Nle = CCCC[C@H](N)C(=O)O; Orn = NCCC[C@H](N)C(=O)O; Abu = CC[C@H](N)C(=O)O; Aoc = NCCCCCCCC(=O)O; Ava = NCCCCC(=O)O

Target: T1, GHRH receptor of human pituitary membranes (human, UniProt Q02643)
T1 sequence: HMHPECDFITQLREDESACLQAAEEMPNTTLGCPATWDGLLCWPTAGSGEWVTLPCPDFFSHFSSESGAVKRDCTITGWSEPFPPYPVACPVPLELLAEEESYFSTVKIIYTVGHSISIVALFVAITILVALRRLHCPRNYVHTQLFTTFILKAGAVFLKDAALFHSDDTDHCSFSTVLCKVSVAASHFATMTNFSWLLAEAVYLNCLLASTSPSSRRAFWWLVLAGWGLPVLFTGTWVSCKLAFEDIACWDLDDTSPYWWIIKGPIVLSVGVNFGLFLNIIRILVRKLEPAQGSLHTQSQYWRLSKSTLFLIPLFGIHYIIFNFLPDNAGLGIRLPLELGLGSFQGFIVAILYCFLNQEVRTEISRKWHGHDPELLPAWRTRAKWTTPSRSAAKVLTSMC
Experiment: competition vs 125I-JV-1-42, human pituitary membranes;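 also: pituitaries used were normal human glands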

- IC50: 3.61 nM
- relative affinity (binding potency) vs JI-38: 1.2 vs JI-38=1
B1: P-21300 [Dat^1, D-Ala^2, Orn^12, Abu^15, Orn^21, Nle^27, Asp^28, Amc^30]hGHRH(1-30)NH2 (peptide)
peptide: [Desaminotyrosyl][dA]DAIFTNSYR[Orn]VL[Abu]QLSAR[Orn]LLQDI[Nle]DR[Aoc]-NH2
SMILES: CCCC[C@H](NC(=O)[C@@H](NC(=O)[C@H](CC(=O)O)NC(=O)[C@H](CCC(N)=O)NC(=O)[C@H](CC(C)C)NC(=O)[C@H](CC(C)C)NC(=O)[C@H](CCCN)NC(=O)[C@H](CCCNC(=N)N)NC(=O)[C@H](C)NC(=O)[C@H](CO)NC(=O)[C@H](CC(C)C)NC(=O)[C@H](CCC(N)=O)NC(=O)[C@H](CC)NC(=O)[C@H](CC(C)C)NC(=O)[C@@H](NC(=O)[C@H](CCCN)NC(=O)[C@H](CCCNC(=N)N)NC(=O)[C@H](Cc1ccc(O)cc1)NC(=O)[C@H](CO)NC(=O)[C@H](CC(N)=O)NC(=O)[C@@H](NC(=O)[C@H](Cc1ccccc1)NC(=O)[C@@H](NC(=O)[C@H](C)NC(=O)[C@H](CC(=O)O)NC(=O)[C@@H](C)NC(=O)CCc1ccc(O)cc1)[C@@H](C)CC)[C@@H](C)O)C(C)C)[C@@H](C)CC)C(=O)N[C@@H](CC(=O)O)C(=O)N[C@@H](CCCNC(=N)N)C(=O)NCCCCCCCC(N)=O

- IC50: 0.86 nM
- relative affinity (binding potency) vs JI-38: 5.06 vs JI-38=1
B2: P-20357 [Dat^1, D-Ala^2, N-Me-Ala^8, Orn^12, Abu^15, Orn^21, Nle^27, Asp^28, Agm^29]hGHRH(1-29)NH2 (peptide)
peptide: [Desaminotyrosyl][dA]DAIFT[NMeA]SYR[Orn]VL[Abu]QLSAR[Orn]LLQDI[Nle]D[Agmatine]
SMILES: CCCC[C@H](NC(=O)[C@@H](NC(=O)[C@H](CC(=O)O)NC(=O)[C@H](CCC(N)=O)NC(=O)[C@H](CC(C)C)NC(=O)[C@H](CC(C)C)NC(=O)[C@H](CCCN)NC(=O)[C@H](CCCNC(=N)N)NC(=O)[C@H](C)NC(=O)[C@H](CO)NC(=O)[C@H](CC(C)C)NC(=O)[C@H](CCC(N)=O)NC(=O)[C@H](CC)NC(=O)[C@H](CC(C)C)NC(=O)[C@@H](NC(=O)[C@H](CCCN)NC(=O)[C@H](CCCNC(=N)N)NC(=O)[C@H](Cc1ccc(O)cc1)NC(=O)[C@H](CO)NC(=O)[C@H](C)N(C)C(=O)[C@@H](NC(=O)[C@H](Cc1ccccc1)NC(=O)[C@@H](NC(=O)[C@H](C)NC(=O)[C@H](CC(=O)O)NC(=O)[C@@H](C)NC(=O)CCc1ccc(O)cc1)[C@@H](C)CC)[C@@H](C)O)C(C)C)[C@@H](C)CC)C(=O)N[C@@H](CC(=O)O)C(=O)NCCCCNC(=N)N

- IC50: 1.07 nM
- relative affinity (binding potency) vs JI-38: 4.07 vs JI-38=1
B3: P-25501 [N-Me-Tyr^1, D-Ala^2, Orn^12, Abu^15, Orn^21, Nle^27, Gab^30]hGHRH(1-30)NH2 (peptide)
peptide: YADAIFTNSYRKVLGQLSARKLLQDIMSRQ
modifications: N-Me-Tyr^1; D-Ala^2; Orn^12; Abu^15; Orn^21; Nle^27; Gab^30 (in place of Gln^30); C-terminal -NH2

- IC50: 2.99 nM
- relative affinity (binding potency) vs JI-38: 1.45 vs JI-38=1
B4: P-21301 [N-Me-Tyr^1, Orn^12, Abu^15, Orn^21, Nle^27, Asp^28, Amc^30]hGHRH(1-30)NH2 (peptide)
peptide: [NMeY]ADAIFTNSYR[Orn]VL[Abu]QLSAR[Orn]LLQDI[Nle]DR[Aoc]-NH2
modifications: N-terminus assumed
SMILES: CCCC[C@H](NC(=O)[C@@H](NC(=O)[C@H](CC(=O)O)NC(=O)[C@H](CCC(N)=O)NC(=O)[C@H](CC(C)C)NC(=O)[C@H](CC(C)C)NC(=O)[C@H](CCCN)NC(=O)[C@H](CCCNC(=N)N)NC(=O)[C@H](C)NC(=O)[C@H](CO)NC(=O)[C@H](CC(C)C)NC(=O)[C@H](CCC(N)=O)NC(=O)[C@H](CC)NC(=O)[C@H](CC(C)C)NC(=O)[C@@H](NC(=O)[C@H](CCCN)NC(=O)[C@H](CCCNC(=N)N)NC(=O)[C@H](Cc1ccc(O)cc1)NC(=O)[C@H](CO)NC(=O)[C@H](CC(N)=O)NC(=O)[C@@H](NC(=O)[C@H](Cc1ccccc1)NC(=O)[C@@H](NC(=O)[C@H](C)NC(=O)[C@H](CC(=O)O)NC(=O)[C@H](C)NC(=O)[C@H](Cc1ccc(O)cc1)NC)[C@@H](C)CC)[C@@H](C)O)C(C)C)[C@@H](C)CC)C(=O)N[C@@H](CC(=O)O)C(=O)N[C@@H](CCCNC(=N)N)C(=O)NCCCCCCCC(N)=O

- IC50: 3.05 nM
- relative affinity (binding potency) vs JI-38: 1.43 vs JI-38=1
B5: P-20359 [N-Me-Tyr^1, D-Ala^2, Fpa5^6, Orn^12, Abu^15, Orn^21, Nle^27, Asp^28, Agm^29]hGHRH(1-29)NH2 (peptide)
peptide: [NMeY][dA]DAI[Phe(F5)]TNSYR[Orn]VL[Abu]QLSAR[Orn]LLQDI[Nle]D[Agmatine]

- IC50: 3.8 nM
- relative affinity (binding potency) vs JI-38: 1.14 vs JI-38=1
B6: P-22325 [N-Me-Tyr^1, Gln^8, Orn^12, Abu^15, Orn^21, Nle^27, Asp^28, Apa^30]hGHRH(1-30)NH2 (peptide)
peptide: [NMeY]ADAIFTQSYR[Orn]VL[Abu]QLSAR[Orn]LLQDI[Nle]DR[Ava]-NH2
modifications: N-terminus assumed
SMILES: CCCC[C@H](NC(=O)[C@@H](NC(=O)[C@H](CC(=O)O)NC(=O)[C@H](CCC(N)=O)NC(=O)[C@H](CC(C)C)NC(=O)[C@H](CC(C)C)NC(=O)[C@H](CCCN)NC(=O)[C@H](CCCNC(=N)N)NC(=O)[C@H](C)NC(=O)[C@H](CO)NC(=O)[C@H](CC(C)C)NC(=O)[C@H](CCC(N)=O)NC(=O)[C@H](CC)NC(=O)[C@H](CC(C)C)NC(=O)[C@@H](NC(=O)[C@H](CCCN)NC(=O)[C@H](CCCNC(=N)N)NC(=O)[C@H](Cc1ccc(O)cc1)NC(=O)[C@H](CO)NC(=O)[C@H](CCC(N)=O)NC(=O)[C@@H](NC(=O)[C@H](Cc1ccccc1)NC(=O)[C@@H](NC(=O)[C@H](C)NC(=O)[C@H](CC(=O)O)NC(=O)[C@H](C)NC(=O)[C@H](Cc1ccc(O)cc1)NC)[C@@H](C)CC)[C@@H](C)O)C(C)C)[C@@H](C)CC)C(=O)N[C@@H](CC(=O)O)C(=O)N[C@@H](CCCNC(=N)N)C(=O)NCCCCC(N)=O

- IC50: 1.18 nM
- relative affinity (binding potency) vs JI-38: 3.67 vs JI-38=1
B7: P-25503 [N-Me-Tyr^1, Abu^2, Orn^12, Abu^15, Orn^21, Nle^27, Gab^30]hGHRH(1-30)NH2 (peptide)
peptide: B3 peptide
modifications: N-Me-Tyr^1; Abu^2; Orn^12; Abu^15; Orn^21; Nle^27; Gab^30 (in place of Gln^30); C-terminal -NH2

- IC50: 1.87 nM
- relative affinity (binding potency) vs JI-38: 2.32 vs JI-38=1
B8: P-21303 [N-Me-Tyr^1, D-Ala^2, Orn^12, Abu^15, Orn^21, Nle^27, Asp^28, Amc^30]hGHRH(1-30)NH2 (peptide)
peptide: [NMeY][dA]DAIFTNSYR[Orn]VL[Abu]QLSAR[Orn]LLQDI[Nle]DR[Aoc]-NH2
modifications: N-terminus assumed
SMILES: CCCC[C@H](NC(=O)[C@@H](NC(=O)[C@H](CC(=O)O)NC(=O)[C@H](CCC(N)=O)NC(=O)[C@H](CC(C)C)NC(=O)[C@H](CC(C)C)NC(=O)[C@H](CCCN)NC(=O)[C@H](CCCNC(=N)N)NC(=O)[C@H](C)NC(=O)[C@H](CO)NC(=O)[C@H](CC(C)C)NC(=O)[C@H](CCC(N)=O)NC(=O)[C@H](CC)NC(=O)[C@H](CC(C)C)NC(=O)[C@@H](NC(=O)[C@H](CCCN)NC(=O)[C@H](CCCNC(=N)N)NC(=O)[C@H](Cc1ccc(O)cc1)NC(=O)[C@H](CO)NC(=O)[C@H](CC(N)=O)NC(=O)[C@@H](NC(=O)[C@H](Cc1ccccc1)NC(=O)[C@@H](NC(=O)[C@H](C)NC(=O)[C@H](CC(=O)O)NC(=O)[C@@H](C)NC(=O)[C@H](Cc1ccc(O)cc1)NC)[C@@H](C)CC)[C@@H](C)O)C(C)C)[C@@H](C)CC)C(=O)N[C@@H](CC(=O)O)C(=O)N[C@@H](CCCNC(=N)N)C(=O)NCCCCCCCC(N)=O
